Test results taken from article PMC7292776.

Target: typhoid toxin PltB homopentamer (S. Typhi PltB, wild type) (Salmonella enterica serovar Typhi) (UniProt Q8Z6A3)
Experiment: crystal structure

Question: Which stoichiometry N does the source give for “typhoid toxin PltB homopentamer (S. Typhi PltB, wild type) (from UniProt Q8Z6A3 1-137) (natural protein)” here?
Answer: Its stoichiometry N is 5.
